Assay results as given in US20160194380A1 (Merck KGaA, published 2016).
Where no end group is shown, it is not given here.

B1: MCoTI-II wt (inhibitor 3) (peptide, UniProt P82409 5-34, looked up)
peptide: GGVCPKILKKCRRDSDCPGACICRGNGYCG
modifications: disulfide (positions not given here); also: oxidatively folded, disulfide places not given here
notes: Open-chain (acyclic) form, chemically synthesised and oxidatively folded; also called 3 (MCoTI-II wt); MCoTI-wt 3
B2: SOTI-III wt (inhibitor 1) (peptide, UniProt P84781 1-37, looked up)
peptide: EDKCSPSGAICSGFGPPEQCCSGACVPHPILRIFVCQ
modifications: disulfide (positions not given here); also: oxidatively folded, disulfide places not given here
notes: Made by Fmoc-SPPS and oxidative folding; also called 1 (SOTI-III wt); SOTI-III wild type 1

Legend:
Human matriptase-1 = biological target: T1, Human matriptase-1 (human, UniProt Q9Y5Y6 596-855, limits assumed); assay: protease inhibition assay, substrate-independent Ki from Morrison fit
T1 construct: also called MTSP1
T1 sequence (looked up): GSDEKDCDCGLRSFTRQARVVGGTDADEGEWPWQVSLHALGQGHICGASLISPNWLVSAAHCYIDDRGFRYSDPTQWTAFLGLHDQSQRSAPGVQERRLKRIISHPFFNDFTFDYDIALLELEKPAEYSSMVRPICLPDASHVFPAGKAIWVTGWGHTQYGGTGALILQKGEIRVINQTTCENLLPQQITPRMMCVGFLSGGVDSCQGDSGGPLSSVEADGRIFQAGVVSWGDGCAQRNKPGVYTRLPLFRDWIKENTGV
Procedure: (§1) D: Biol. Crystallogr., 69(2013), 114-120; Reinwarth, ChemBioChem, 14(2013), 137-146; Boy, Mol. Imaging Biol. 12(2010), 377-385] Measurements were carried out in triplicates using a Tecan Genios ELISA reader. The normalized residual proteolytic activity (v/v0) of proteases was determined using substrates Boc-QAR-pNA (250 μM), Boc-QAR-AMC (250 μM) or Spectrozym tPA (250 μM). Product formation was monitored after preincubation (30 min, RT) with inhibitor at different concentrations over 30 min by measuring the absorbance at 405 nm or the fluorescence emission (ex. 360 nm, em. 465 nm), respectively. Selectivity data were carried out in duplicates with final protease concentrations of uPA and thrombin of 5 nM. In case of hepsin 50 mM Tris/HCl pH 9.0 was used as assay buffer. Apparent inhibition constants (Kᵢ^app) were calculated by fitting the Morrison equation (1) for tight-binding inhibitors to the relative reaction velocity using non-linear regression (Marquardt-Levenberg algorithm, SigmaPlot 11).
(§2) Substrate-independent inhibition constants Ki were calculated from Ki^app and Km of the enzyme according to (2). The Michaelis-Menten constant Km for the substrates and proteases were determined previously.

[1] = biological target: T2, Bovine pancreatic trypsin (bovine, UniProt P00760 24-246); assay: as above
T2 construct: Bought
Procedure: as §1, §2

T2 sequence (P00760 24-246): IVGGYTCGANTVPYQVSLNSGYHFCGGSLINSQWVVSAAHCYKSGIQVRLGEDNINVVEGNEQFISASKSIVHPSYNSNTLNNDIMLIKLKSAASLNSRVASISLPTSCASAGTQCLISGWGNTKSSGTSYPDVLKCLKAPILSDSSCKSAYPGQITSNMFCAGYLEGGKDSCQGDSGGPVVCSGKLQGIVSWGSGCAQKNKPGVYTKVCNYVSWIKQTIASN

| Binder | Ki (Human matriptase-1) [nM] | Ki [1] [nM] |
| --- | --- | --- |
| B1 | 80.7 | 2.37 |
| B2 |  | 60.6 |
